Source: US20100222269A1 (Novo Nordisk, published 2010)
Positions of bridges follow the written chain, without caps; N, C: chain ends. Groups on a side chain read outwards from the residue. No end group written: not given here. *: point of attachment. C20 diacid = O=C(O)CCCCCCCCCCCCCCCCCCC(=O)*; C18 diacid = O=C(O)CCCCCCCCCCCCCCCCC(=O)*; AEEA = NCCOCCOCC(=O)O

Target: Amylin 3(a) receptor (human calcitonin receptor (CTa) with RAMP-3) on BHK570 cells (human, UniProt P30988 25-474)
Assay: cell-based or functional assay

Sequence of Amylin 3(a) receptor (human calcitonin receptor (CTa) with RAMP-3) on BHK570 cells (P30988 25-474): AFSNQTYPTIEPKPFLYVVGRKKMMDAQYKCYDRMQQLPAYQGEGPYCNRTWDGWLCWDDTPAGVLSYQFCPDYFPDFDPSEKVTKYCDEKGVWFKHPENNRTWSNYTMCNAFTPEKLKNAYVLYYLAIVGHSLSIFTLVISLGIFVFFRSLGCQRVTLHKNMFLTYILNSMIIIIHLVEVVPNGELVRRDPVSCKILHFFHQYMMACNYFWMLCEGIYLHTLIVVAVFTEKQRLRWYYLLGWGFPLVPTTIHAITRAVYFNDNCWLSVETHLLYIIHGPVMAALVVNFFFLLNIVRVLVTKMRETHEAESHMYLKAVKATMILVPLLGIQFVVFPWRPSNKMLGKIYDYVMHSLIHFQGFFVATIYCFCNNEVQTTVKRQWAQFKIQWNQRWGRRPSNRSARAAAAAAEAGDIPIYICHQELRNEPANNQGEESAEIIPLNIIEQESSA

In order of falling Potency luciferase assay:
1. KCNTATCATQRLANFLVHSSNNFGPILPK([AEEA-AEEA-C20 diacid])TNVGSNTY-NH2 (disulfide 2-7 (inferred))  0.2 nM
2. KCNTATCATQRLANFLK([AEEA-AEEA-C20 diacid])HSSNNFGPILPPTNVGSNTY-NH2 (disulfide 2-7 (inferred))  0.1 nM
3. KCNTATCATQRLANFLVHSSK([AEEA-AEEA-C20 diacid])NFGPILPPTNVGSNTY-NH2 (disulfide 2-7 (inferred))  0.1 nM
4. {C20 diacid}-EKRCNTATCATQRLANFLVHSSNNFGPILPPTNVGSNTY-NH2 (disulfide 4-9 (inferred)) [N-alpha-(19-carboxynonadecanoyl)-Glu-Lys-[Arg1]-pramlintide (1-37)]  0.07 nM
5. KCNTATCATQRLANFLVHSSNNFGK([AEEA-AEEA-C20 diacid])ILPPTNVGSNTY-NH2 (disulfide 2-7 (inferred))  0.06 nM
6. KCNTATCATQRLANFLVRSSNNFGK([AEEA-AEEA-C18 diacid])ILPPTNVGSNTY-NH2 (disulfide 2-7 (inferred))  0.04 nM
